According to paper PMC8928829 (mAbs, 2022):

Key:
Conditions in all cases: both partners purified
[1] = biological target: T1, SARS-CoV-2 RBD (prototype), construct made for crystallography (SARS-CoV-2, prototype (Wuhan-Hu-1)); assay: crystal structure
T1 construct: also called prototype SARS-CoV-2 RBD; SARS-CoV-2 RBD (319-537)

[2] = biological target: recombinant SARS-CoV-2 RBD, prototype (BLI) (SARS-CoV-2, prototype (Wuhan-Hu-1), UniProt P0DTC2); assay: BLI
[3] = biological target: SARS-CoV-2 RBD, prototype (SARS-CoV-2, prototype (Wuhan-Hu-1), UniProt P0DTC2); assay: BLI

Binder	binding result [1]	Kd [2] [nM]	koff [2] [s⁻¹]	kon [3] [M⁻¹ s⁻¹]
NIH-CoVnb-112 (VHH) VHH: DVQLQESGGGLVQPGGSLRLSCAASGLTLDYYAIGWFRQAPGKEREGVSCISSSDGSTYYADSVKGRFTTSRDNAKNTVYLQMNSLKPEDTAVYYCAAVPSTYYSGTYYYTCHPGGMDYWGKGTQVTVSS [NIH-CoVnb-112, listing 1 of 2 here]	binds	1.59	0.000236	
NIH-CoVnb-112 (VHH) VHH: DVQLQESGGGLVQPGGSLRLSCAASGLTLDYYAIGWFRQAPGKEREGVSCISSSDGSTYYADSVKGRFTTSRDNAKNTVYLQMNSLKPEDTAVYYCAAVPSTYYSGTYYYTCHPGGMDYWGKGTQVTVSS [NIH-CoVnb-112, listing 2 of 2 here]				223000
